Results from patent US20060013804A1, “Modulation of stem cell differentiation by modulation of caspase-3 activity” (Ottawa Health Research Institute, priority 2002, published 2006).
“Also recorded” adds a separate entry of the source. One block for each molecule: values may come before it. Where a SMILES comes first, the peptide text is derived from it. The star is where a group is joined. Cbz = O=C(OCc1ccccc1)*; CH2F = FC*

Columns and labels:
[1] = test system: clonally-derived CD1 neurospheres; test: Neurite extensions / morphology of differentiating neurospheres; format: cell-based, mouse; conditions: differentiation media up to 5 d, 2.0 μM inhibitor, vs DMSO
Protocol: Neurospheres were sub-cultured no more than once per collection. The differentiation of neurospheres was initated by plating spheres on poly-L-ornithine coated plates in NeuroCult Differentiation Medium in the absence of bFGF, as per manufacturer's instructions. […] All cultures received fresh media and inhibitor every 24 h for the duration of the experiment. Neurospheres from caspase 3 null embryos (Fernando, P., et al., (2002) Proc Natl Acad Sci USA 99, 11025-11030) were cultured as described above.
Immunocytochemistry: Neurospheres were collected at selected time points, fixed in 4% paraformaldehyde and prepared for immunostaining as previously described (Fernando, P., et al., (2002) Proc Natl Acad Sci USA 99, 11025-11030)). The primary antibody concentrations for anti-nestin, -GFAP, -MBP and -active caspase 3 (BioVision, USA) were titrated on wildtype CD1 neurospheres prior to their experimental use. These antibodies were visualized by counterstaining with either FITC or Cy3 conjugated secondary antibodies (Chemicon USA). Nuclei were localized with 4′,6-Diamidino-2 phenylindole (DAPI) (Sigma, USA). Cells were visualized using either an Axiovert 100 for transmission microscopy or Axioplan 2 for fluorescent microscopy (Zeiss, Germany) at selected magnifications. Captured images were processed using AxioVision Viewer 3.0 software.
Quantitation of Neurite Extensions: Neurites from differentiating neurospheres were estimated from a total of 6-8 neurospheres per condition over three independent experiments. To quantitated neuritis, the average diameter of an individual neurosphere was estimated from the vertical and horizontal distance. The number of extensions leaving the neurosphere body were then counted and an ratio of neurosphere extensions:average neurosphere diameter was calculated for each. All measurements including neurosphere diameter were evaluated using Scion Image.

[2] = test system: C2C12 myoblasts; test: C2C12 myoblast differentiation in low serum media with caspase inhibitors (MF20 staining, immunoblot of myogenic markers); format: cell-based, mouse; conditions: 20 μM inhibitor
Protocol: (§1) Myoblast culture. C2C12 cell (mouse skeletal muscle myoblast) cultures were grown and maintained in DMEM containing 10% FBS with 50 units/ml penicillin and 50 μg/ml streptomycin (Gibco). Differentiation was induced by incubating cultures in DMEM containing only a low serum concentration (2% horse serum). Caspase activity was measured using a Caspase-3 and Caspase-8 Fluorometric Assay Kit (Pharmingen). […] Control cells were treated with an equivalent amount of vehicle (DMSO). Primary myoblast cells were derived from skeletal muscles of the hind- and fore-limbs from 1-2 day old C57BL/6 wild-type, caspase-3 heterozygous and caspase-3 null mice (Frasch, S. C., et al., (1998) J. Biol. Chem. 273, 8389-8397; Kuida, K., et al., (1996) Nature 384, 368-372) (n=5 for each genotype) as described (Cregan, S. P. et al., (1999) J. Neuro. 19, 7860-7869.). To induce differentiation, primary myoblast cultures were incubated in DMEM containing 5% horse serum.
Protein isolation, immunoblot analyses and immunocytochemistry. Cells from C2C12 and primary myoblast cultures were washed with ice-cold PBS and lysed on ice for 45 minutes in modified-RIPA buffer containing 20 mM NaF, 5 mM Na3VO4 and 10 μg/ml each of aprotinin, leupeptin, pepstatin and PMSF. Total protein was measured using the BCA protein assay (Pierce). Immunoblot analyses were performed as described (Creasy, C. L., & Chernoff, J. (1995) J. Biol. Chem. 270, 21695-21700) using antibodies for MST1, MKK6, p38γ, and p38α (Upstate), p38 and MEF2C (Cell Signaling Technologies), myogenin F5D and myosin heavy chain MF20 mAb (Developmental Hybridoma Bank), and active caspase-3 (Biovision).
C2C12 myoblasts were fixed and stained with anti-MF20 as previously described (Cregan, et al., (1999) J. Neuro. 19, 7860-7869). Primary myoblast cultures were fixed in 4% paraformaldehyde, rinsed three times in PBS containing 0.01% Triton X-100 and stained as above. For both C2C12 and primary myoblast cultures, nuclei were detected by incubating cells for 10 min with 4,6-diamidino-2-phenylindole diluted 1:10000 in PBS.
Cells were fixed after 0, 2 and 4 days of differentiation and stained with the myosin heavy chain antibody MF20. […] In contrast, differentiation was more evident in cells that were incubated with caspase-8 inhibitor, z-LETD.fmk (FIG. 2B bottom panel, C).

[3] = test system: caspase-3-/- primary myoblasts; test: Transfection of MST1 constructs into caspase-3-/- primary myoblasts (rescue of myogenesis); format: cell-based, mouse; conditions: for myotube formation in caspase-3-/- myoblasts: transient transfection, primary caspase-3-/- myoblasts
Protocol: as §1
(§2) Transfection Assays. The complete open reading frame of the human MST1, [Genbank Accession No. gi|1117790] obtained from a clone bank collection (Stratagene) was inserted into the expression vector pcDNA3.1 Myc/His (Invitrogen). A constitutively active MST1 (MST1-act) was prepared as previously described (Megeney, L. A., et al., (1996) Genes Dev 10, 1173-1183). The integrity of both MST1 and MST1-act were confirmed by sequencing. The kinase activity of these protein products were verified by transient transfection into COS1 cells followed by immunoprecipitation and kinase analysis using Histone-H1 as the target substrate (see below). Transfections with MST1 and MST1-act into both COS1 and primary myoblasts were performed using Lipofectamine Plus (Gibco) as directed in the manufacturer's instructions.
To delineate the effect of MST1 on myogenesis, wild-type MST1, an activated MST1 (aa 1-330, MST1-act) or plasmid alone was transiently transfected into primary myoblasts derived from caspase-3^−/− mice. The activity of these constructs was verified by Histone H1 targeted kinase analysis of MST1 from transiently transfected COS1 cells (FIG. 5A).

[4] = test system: Histone H1; test: Histone H1 targeted kinase assay of MST1 constructs immunoprecipitated from transfected COS1 cells; format: biochemical; conditions: transiently transfected COS1 cells, Histone H1 substrate
Protocol: as §2
Co-immunoprecipitation and kinase analyses. Immunoprecipitation was performed using 150-200 μg of total protein, incubated in modified-RIPA buffer at 4° C. for 16 h containing the respective antibody. Samples were mixed for 1 h with 25 μl of a 50% Protein G (Pharmacia). For co-immunoprecipitation, immunoprecipitates were washed in modified-RIPA buffer, boiled in 1× Lamelli buffer, separated by SDS-PAGE and Western blotted for immunoblot analyses. […] Following SDS-PAGE, gels were dried and phospho-incorporation was analyzed by autoradiography. […]

[5] = test system: wildtype primary myoblasts; test: Transfection of MST1-act into wildtype primary myoblasts; format: cell-based, mouse
Protocol: as §1
Transfection Assays. The complete open reading frame of the human MST1, [Genbank Accession No. gi|1117790] obtained from a clone bank collection (Stratagene) was inserted into the expression vector pcDNA3.1 Myc/His (Invitrogen). A constitutively active MST1 (MST1-act) was prepared as previously described (Megeney, L. A., et al., (1996) Genes Dev 10, 1173-1183). The integrity of both MST1 and MST1-act were confirmed by sequencing. […]

[6] = test system: C2C12 myoblasts; test: Transfection of recombinant active caspase-3 protein into subconfluent C2C12 myoblasts in growth media; format: cell-based, mouse
Protocol: To further test a cell-autonomous role of caspase-3 in inducing myoblast differentiation, active caspase-3 protein was transfected into a subconfluent population of C2C12 myoblasts maintained in growth media. Sub-confluent C2C12 myoblasts were transfected with […] of recombinant active caspase-3 and examined after 12 h for the presence of myosin heavy chain (anti-MF20) detected using a FITC conjugated secondary antibody. A confluent population of cells were incubated in low serum media (differentiation media) to induce myoblast differentiation and examined after 12 h. In all cells examined, nuclei were localised with DAPI staining. The results are shown in FIG. 3, which is representative of 7 trials.

[7] = biological target: T1, human MST1 (Mammalian Sterile Twenty-like kinase), full length, in vitro translated from MST1-pcDNA3.1 Myc/His
T1 chain: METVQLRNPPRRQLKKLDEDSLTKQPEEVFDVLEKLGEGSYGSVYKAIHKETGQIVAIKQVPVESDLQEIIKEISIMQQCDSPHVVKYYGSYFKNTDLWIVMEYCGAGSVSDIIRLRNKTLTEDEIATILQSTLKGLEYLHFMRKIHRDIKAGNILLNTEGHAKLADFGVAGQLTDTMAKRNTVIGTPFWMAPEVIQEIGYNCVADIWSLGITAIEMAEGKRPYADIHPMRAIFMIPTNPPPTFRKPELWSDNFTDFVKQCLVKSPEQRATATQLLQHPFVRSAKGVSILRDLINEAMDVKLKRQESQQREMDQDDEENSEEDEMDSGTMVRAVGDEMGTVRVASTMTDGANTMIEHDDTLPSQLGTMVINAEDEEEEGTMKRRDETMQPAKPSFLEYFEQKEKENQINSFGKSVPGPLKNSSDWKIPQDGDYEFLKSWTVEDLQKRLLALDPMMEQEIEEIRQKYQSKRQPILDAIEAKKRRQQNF

Molecule: CC[C@H](C)[C@H](NC(=O)OCc1ccccc1)C(=O)N[C@@H](CCC(=O)OC)C(=O)N[C@H](C(=O)N[C@@H](CC(=O)OC)C(=O)CF)[C@@H](C)O [z-IETD.fmk] (Cbz-IE(OMe)TD(OMe)-CH2F)
neurite extensions / morphological changes [1]: did not affect morphological changes in neurosphere differentiation
neurite extensions / morphological changes ([1]; listed as IETD): extensive neurite networking present

myotube formation ([2]; C2C12, low serum media, MF20 staining, up to 4 days, vs DMSO): minor attenuation of myotube formation
Molecule: COC(=O)CC[C@H](NC(=O)[C@H](CC(C)C)NC(=O)OCc1ccccc1)C(=O)N[C@H](C(=O)N[C@@H](CC(=O)OC)C(=O)CF)[C@@H](C)O [z-LETD.fmk] (Cbz-LE(OMe)TD(OMe)-CH2F)
degree of differentiation ([2]; C2C12, low serum, vs vehicle treated cells): remained below that observed in vehicle treated cells

Molecule: COC(=O)C[C@H](NC(=O)[C@H](C)NC(=O)[C@@H](NC(=O)OCc1ccccc1)C(C)C)C(=O)CF [z-VAD.fmk] (Cbz-Val-Ala-Asp(OMe)-CH2F)
neurite extensions / morphological changes [1]: gave results similar to caspase 3 inhibition

myotube formation in caspase-3-/- myoblasts [3]: remained as mono-nucleated myoblasts
B1: wild-type MST1: complete open reading frame of human MST1 in expression vector pcDNA3.1 Myc/His, transfected (protein)
chain: METVQLRNPPRRQLKKLDEDSLTKQPEEVFDVLEKLGEGSYGSVYKAIHKETGQIVAIKQVPVESDLQEIIKEISIMQQCDSPHVVKYYGSYFKNTDLWIVMEYCGAGSVSDIIRLRNKTLTEDEIATILQSTLKGLEYLHFMRKIHRDIKAGNILLNTEGHAKLADFGVAGQLTDTMAKRNTVIGTPFWMAPEVIQEIGYNCVADIWSLGITAIEMAEGKRPYADIHPMRAIFMIPTNPPPTFRKPELWSDNFTDFVKQCLVKSPEQRATATQLLQHPFVRSAKGVSILRDLINEAMDVKLKRQESQQREMDQDDEENSEEDEMDSGTMVRAVGDEMGTVRVASTMTDGANTMIEHDDTLPSQLGTMVINAEDEEEEGTMKRRDETMQPAKPSFLEYFEQKEKENQINSFGKSVPGPLKNSSDWKIPQDGDYEFLKSWTVEDLQKRLLALDPMMEQEIEEIRQKYQSKRQPILDAIEAKKRRQQNF

efficiency of differentiation ([3]; caspase-3 knockout myoblasts containing construct): > 85%
B2: MST1-act: constitutively active MST1 (aa 1-330) expressed from pcDNA3.1 Myc/His by transfection (protein, UniProt Q13043 1-330, looked up, fragment)
chain: METVQLRNPPRRQLKKLDEDSLTKQPEEVFDVLEKLGEGSYGSVYKAIHKETGQIVAIKQVPVESDLQEIIKEISIMQQCDSPHVVKYYGSYFKNTDLWIVMEYCGAGSVSDIIRLRNKTLTEDEIATILQSTLKGLEYLHFMRKIHRDIKAGNILLNTEGHAKLADFGVAGQLTDTMAKRNTVIGTPFWMAPEVIQEIGYNCVADIWSLGITAIEMAEGKPPYADIHPMRAIFMIPTNPPPTFRKPELWSDNFTDFVKQCLVKSPEQRATATQLLQHPFVRSAKGVSILRDLINEAMDVKLKRQESQQREVDQDDEENSEEDEMDSGTM
modifications: Myc/His tag
kinase activity of construct [4]: high level of kinase activity
myogenesis in wildtype myoblasts ([5]; 2 days in differentiation media, vs untransfected wildtype): comparable to wildtype cultures after 4-5 days of differentiation; also recorded: accelerated myogenesis after 2 days
apoptosis on protracted differentiation ([5]; differentiation time course >4 days): enhanced apoptosis
myotube formation in caspase-3-/- myoblasts [3]: elongated and fused with neighbouring cells to form multinucleated myotubes; also recorded: differentiated to form fused, multinucleated myotubes

B3: caspase-3 (endogenous, in lysates or cultures of mouse C2C12 myoblasts and mouse CD1 neurospheres) (protein)
chain: SGIYLDSSYKMDYPEMGICIIINNKNFHKSTGMSSRSGTDVDAANLRETFMGLKYQVRNKNDLTREDILELMDSVSKEDHSKRSSFVCVILSHGDEGVIYGTNGPVELKKLTSFFRGDYCRSLTGKPKLFIIQACRGTELDCGIETDSGTDEEMACQKIPVEADFLYAYSTAPGYYSWRNSKDGSWFIQSLCSMLKLYAHKLEFMHILTRVNRKVATEFESFSLDSTFHAKKQIPCIVSMLTKELYFYH
transfected cells undergoing differentiation ([6]; C2C12 in growth media, 20 µg protein, 12 h, myosin heavy chain immunodetection, n=4): > 95%
morphologic features of apoptosis ([6]; transfected C2C12 expressing myosin heavy chain): did not display any morphologic features normally attributed to apoptosis
proteolytic cleavage of [35S]-methionine labelled MST1 by C2C12 lysates (SDS-PAGE, autoradiography) [7]: the lower 36 kDa MST1 fragment was not apparent in samples where caspase-3 activity was inhibited
